# Source: patent US20020052476A1 (Human Genome Sciences, published 2002)
# T1: papain (EC 3.4.22.2; from Sigma) (UniProt P00784 134-345)
# T1 construct: Commercial enzyme
# T1 sequence (looked up): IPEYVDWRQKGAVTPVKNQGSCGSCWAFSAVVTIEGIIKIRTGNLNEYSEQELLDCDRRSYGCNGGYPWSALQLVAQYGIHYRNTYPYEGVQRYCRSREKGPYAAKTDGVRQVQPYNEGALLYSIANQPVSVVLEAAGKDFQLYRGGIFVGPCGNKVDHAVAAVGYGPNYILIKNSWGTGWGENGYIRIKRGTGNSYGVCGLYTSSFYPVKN
# T2: m-CysE (mutant CysE: amino acids 29-143 of SEQ ID NO: 2 plus a 27 amino acid C-terminal fusion product encoded by the pA2 vector)
# T2 chain: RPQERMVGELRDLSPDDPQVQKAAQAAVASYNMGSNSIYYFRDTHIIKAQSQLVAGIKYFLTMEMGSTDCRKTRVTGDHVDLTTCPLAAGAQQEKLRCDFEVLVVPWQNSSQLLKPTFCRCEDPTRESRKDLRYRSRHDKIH
# T3: recombinant human cystatin E (mature CysE secreted from baculovirus-infected Sf9 cells)
# T3 chain: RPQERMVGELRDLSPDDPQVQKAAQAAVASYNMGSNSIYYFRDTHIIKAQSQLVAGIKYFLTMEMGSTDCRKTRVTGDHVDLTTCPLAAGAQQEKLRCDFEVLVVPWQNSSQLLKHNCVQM
# B1: recombinant human cystatin E (mature CysE secreted from baculovirus-infected Sf9 cells) (other)
# chain: T3 chain
# modifications: partly N-glycosylated (protein band doublet, a glycosylated and an unglycosylated form)
# notes: Full-length cDNA was expressed in Sf9 cells; also called recombinant CysE
# B2: papain (EC 3.4.22.2; from Sigma) (protein)
# chain: T1 sequence (looked up)
# Assays:
# [1] = biological target: T1, papain (EC 3.4.22.2; from Sigma); assay: titration of papain activity (Bz-Arg-pNA hydrolysis) with varying inhibitor concentrations; linear titration curves
# From the text: To test the function of CysE and m-CysE as protease inhibitors their effect on papain hydrolysis of casein was investigated according to the method of Example 10. […] The m-CysE mutant performed similarly (data not shown).
# The methods used for active site titration of papain, titration of the molar enzyme inhibitory concentration in cystatin E preparations, and for determination of equilibrium constants for dissociation (Ki) of complexes between cystatin E and cysteine peptidases are described in detail in Hall et al., Biochem. J., 291:123-29 (1993) and Abrahamson, Methods Enzymol., 244:685-700 (1994), both of which are hereby incorporated herein by reference. The enzymes used for equilibrium assays were papain (EC 3.4.22.2; from Sigma, St Louis, Mo.) and cathepsin B (EC 3.4.22.1; from Calbiochem, La Jolla, Calif.). […] Steady state velocities were measured and Ki values were calculated according to Henderson, Biochem J., 127:321-333 (1972), incorporated herein by reference. Corrections for substrate competition were made using Km values of 150=B5M for cathepsins B (Barrett and Kirschke, Methods Enzymol., 80:535-561 (1981) and 60=B5M for papain (Hall et al., Biochem. J., 291:123-29 (1992)), both of which are hereby incorporated herein by reference.
# [2] = biological target: T2, m-CysE (mutant CysE: amino acids 29-143 …)
# [3] = biological target: T3, recombinant human cystatin E (mature …)
Binder,Ki [1],papain hydrolysis of casein [2],papain hydrolysis of Bz-Arg-pNA in 10 minute assays [3],papain hydrolysis of casein [3]
B1,< 10 nM,–,–,–
B2,–,Both CysE and m-CysE showed a dose- and time-dependent inhibition of papain activity (data not shown),"At mM concentrations, the recombinant CysE completely inhibited papain hydrolysis of Bz-Arg-pNA in 10 minute assays",Both CysE and m-CysE showed a dose- and time-dependent inhibition of papain activity (data not shown)
